The values that follow come from US20240376195A1 (BEIGENE, published 2024).

Assay [1] addresses T1, his-tagged human NKp30 (human, UniProt O14931 19-135).
T1 construct: Analyte of the SPR assay; not shown: his tag
T1 sequence: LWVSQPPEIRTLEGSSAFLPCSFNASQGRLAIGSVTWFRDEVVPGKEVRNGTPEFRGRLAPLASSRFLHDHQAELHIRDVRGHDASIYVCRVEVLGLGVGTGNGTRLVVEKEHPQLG
Nature of the assay: SPR, antibody captured on anti-human Fc surface; NKp30 analyte not named in Example 4. The text has this: (§1) Further engineered versions of humanized monoclonal antibodies were derived from the mutation process described as above and characterized in detail. […] For affinity determination, antibodies were captured by anti-human Fc surface, and used in the affinity assay based on surface plasmon resonance (SPR) technology. All the humanization antibodies shown above were also confirmed for functional activities on primary human immune cells isolated from healthy donors (described in Example 7 below).

A further assay addresses T2, T119A.
T2 construct: single alanine mutant; also called mutant Nkp30-Fc T119A
T2 Fc fusion chain: T1 sequence with T101A
Nature of the assay: ELISA; 50 ng Nkp30-Fc variant coated, antibody at 20 nM, HRP-linked secondary antibody; signal relative to wild type. On the procedure: (§2) To characterize the binding epitope of BGA1833, 10 amino acid residues of NKp30 were mutated to alanine individually to generate 10 single-mutation NKp30 variants based upon the information from the crystal structure of NKp30 reported previously (Li et al., J Exp Med. 2011 208:703-714). The mutant NKp30 proteins along with the wild-type NKp30 protein were analyzed for their recognition and binding by BGA1833. Another humanized anti-NKp30 antibody, BGA1913, was also analyzed in the same ELISA assay for comparison. In this assay, 50 ng each of wild-type or mutant Nkp30-Fc was coated in an ELISA plate. After blocking, 100 μl of BGA1833 or BGA1913 antibody at a concentration of 20 nM was added to the plate and the binding signal of each antibody was detected by HRP-linked secondary antibody. All ELISA results were normalized using the mean values of the ELISA reading of wild type NKp30-Fc binding signal as the standard. To simplify data analysis, if an antibody's ELISA binding signal for a specific mutant NKp30 dropped to or below 25%, then the amino acid at that site was considered critical to the epitope.

A further assay concerns the target T3, K129A.
T3 construct: single alanine mutant; also called mutant Nkp30-Fc K129A
T3 Fc fusion chain: T1 sequence with K111A
The assay is described as above. As for the experimental part: as §2

In the next assay the target is T4, S52A.
T4 construct: single alanine mutant; also called mutant Nkp30-Fc S52A
T4 Fc fusion chain: T1 sequence with S34A
The description is as above. On the procedure:
as §2

The target in another assay is T5, E111A.
T5 construct: single alanine mutant; also called mutant Nkp30-Fc E111A
T5 Fc fusion chain: T1 sequence with E93A
The assay is described as above. As for the experimental part: as §2

A further assay concerns the target T6, R109A.
T6 construct: single alanine mutant; also called mutant Nkp30-Fc R109A
T6 Fc fusion chain: T1 sequence with R91A
The assay is described as above. As for the experimental part: as §2

The target in the next assay is T7, E65A.
T7 construct: single alanine mutant; also called mutant Nkp30-Fc E65A
T7 Fc fusion chain: T1 sequence with E47A
Described as above. As for the experimental part:
as §2

A further assay has as its target T8, V117A.
T8 construct: single alanine mutant; also called mutant Nkp30-Fc V117A
T8 Fc fusion chain: T1 sequence with V99A
The assay is described as above. On the procedure:
as §2

A further assay addresses T9, W20A.
T9 construct: single alanine mutant; also called mutant Nkp30-Fc W20A
T9 Fc fusion chain: T1 sequence with W2A
The description is as above. On the procedure: as §2

The target in assay [2] is T10, full-length human NKp30 on NK92MI cells (human, UniProt O14931 19-201).
T10 construct: Full-length human NKp30 over-expressed on NK92MI cells; also called huNKp30; native NKp30
T10 sequence: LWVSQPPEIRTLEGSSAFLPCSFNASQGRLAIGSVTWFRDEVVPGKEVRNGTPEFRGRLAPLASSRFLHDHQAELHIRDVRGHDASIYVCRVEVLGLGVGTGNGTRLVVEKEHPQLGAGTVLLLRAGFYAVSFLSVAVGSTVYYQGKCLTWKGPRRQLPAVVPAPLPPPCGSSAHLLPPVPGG
Nature of the assay: flow cytometry on live NK92MI cells over-expressing human NKp30, goat anti-human IgG detection. As for the experimental part: To evaluate the binding activity of anti-NKp30 antibodies to native NKp30 on living cells, NK92MI cells were transfected to over-express human NKp30. Live NK92mi/NKp30 expressing cells were seeded in 96-well plates and were incubated with a serial dilution of anti-NKp30 antibodies. Goat anti-Human IgG was used as secondary antibody to detect antibody binding to the cell surface. EC₅₀ values for dose-dependent binding to human native NKp30 were determined by fitting the dose-response data to the four-parameter logistic model with GraphPad Prism™.
(In general: A flow cytometer gives signals particle by particle.)

Assay [3] addresses T1, his-tagged human NKp30. Nature of the assay: SPR, antibody captured on anti-human Fc surface.
Description: as §1
On the technique in general: SPR reads the build-up and loss of mass on a sensor chip optically.

Residue numbers refer to the chain shown, from its start.

B1: BGA1833 (antibody, human IgG1, kappa)
heavy: QVQLVQSGAEVKKPGASVKVSCKASGYTFTSSYMHWVRQAPGQGLEWMGEIHPNRDNTNYNEKFKGRVTMTRDTSTSTVYMELSSLRSEDTAVYYCARSYYEYGGAYFDAWGQGTLVTVSSASTKGPSVFPLAPSSKSTSGGTAALGCLVKDYFPEPVTVSWNSGALTSGVHTFPAVLQSSGLYSLSSVVTVPSSSLGTQTYICNVNHKPSNTKVDKKVEPKSCDKTHTCPPCPAPPAAGPSVFLFPPKPKDTLMISRTPEVTCVVVDVSHEDPEVKFNWYVDGVEVHNAKTKPREEQYNSTYRVVSVLTVLHQDWLNGKEYKCKVSNKALAAPIEKTISKAKGQPREPQVYTLPPSRDELTKNQVSLTCLVKGFYPSDIAVEWESNGQPENNYKTTPPVLDSDGSFFLYSKLTVDKSRWQQGNVFSCSVMHEALHNHYTQKSLSLSPGK
light: QIQLTQSPSSLSASVGDRVTITCKASQDVSTAVAWYQQKPGKAPKLLIYAASYRHIGVPSRFSGSGSGTDFTLTISSLQPEDFATYYCQQHYSNPFTFGGGTKVEIKRTVAAPSVFIFPPSDEQLKSGTASVVCLLNNFYPREAKVQWKVDNALQSGNSQESVTEQDSKDSTYSLSSTLTLSKADYEKHKVYACEVTHQGLSSPVTKSFNRGEC
notes: also called BGA1833 (IgG1mf format)
In the assay with his-tagged human NKp30 [1], B1 came in with a Kd of 1.92 nM. Besides, the koff with his-tagged human NKp30 [1] worked out at 0.00278 s⁻¹. The kon with his-tagged human NKp30 [1] worked out at 1.45e+06 M⁻¹ s⁻¹. Moreover, the binding result with T119A, with K129A, with S52A, in the assay with E111A, with R109A and with E65A was “binds” in each case. Besides, the binding result with V117A and in the assay with W20A was “binds” in each case. The molecule further gave a concentration giving a half-maximal response (EC50) in assay [2] of 1.31 nM. Also, the “fold lower affinity than the initial antibody” value with his-tagged human NKp30 [3] is approximately 10 fold.

As usually defined, the Kd is the free concentration of one partner at which half of the binding sites on the other are occupied at equilibrium, for simple one-to-one binding. The low end stands for a tighter complex, the high end for a looser complex. Usually koff stands for the first-order rate constant of dissociation. As usually defined, the kon is a measure of how fast the partners come together. Read a low kon as slow association. Broadly, the EC50 is the concentration needed to bring the measured effect to its halfway point. Low values mean a more potent agent, high ones a less potent agent.
